Experimental findings from the DeepSol protein solubility set are described below.

The nature of the data set: soluble on expression in E. coli; label from the status in PepcDB or PDB records.
Consider “MTEIYEQAKHSLQGEDFSSFNYLFAVNKLLSNPVSYDLGRDLIVRALDSRERFSEHTTILKNMVRKSGLFPYLKKEFTSLTPDDLRVLELYRTPFSDGYVFHSMQFHIFDLLKSGQNVVLSAPTSMGKSAIVDSLLGMGTLKRLVLVVPTVALADETRRRLQERFGDRYQIIHHSSQVCHSDQAVYVLTQERVNERDDIVDIDLFVIDEFYKLAFRQLKSGDIDHQDERVIELNIALSKLLKVSRQFYLTGPFVNSIRGLEKLGYPHTFVSTDFNTVALDVKTFGIKANDDKAKLKALGEIAHACVDATIIYCKSPTVAGLVARELIRLGHGTPTENPHVDWVSEEFDADWDYTVALRNGIGLHFGALPRALQQYTADQFNAGKLRFLLCTSTIIEGVNTIAKNVVIYDNRDGTRSIDKFTHGNIKGRAGRMGVHFVGKIFCLEEIPEDNLNQEVDIPLGIQGIDTPINLLASVQPDHLSEFSQDRFDEVFINDRVSIDLVKKHSYFRVEQFEMLQSMFEMMDDNEFSSLVFHWTPATNFLKTFAKIIARLVPHTFSRNGVPVKPTDVMIAKLAGYLSAESYSEYLKNQIDYARQWISEGEKRTLSIALNNDLKLITNTFGYTLPKVLSLMEDVVKHHAVKRGIRSKVDYTHVKLAFESFHLPPGVNALEEIGIPIQTLHRLVDLLEFSDEADVDELSQYLRDTQDIWSRSIGYVDQMFIRRALGIRRH”, for which the “soluble on expression in E. coli” value is on record as “not soluble”.

As for “TVLPKDIPGDSLKVTVGTANGKPGDTVTVPVTFADVAKMKNVGTCNFYLGYDASLLEVVSVDAGPIVKNAAVNFSSSASNGTISFLFLDNTITDELITADGVFANIKFKLKSVTAKTTTPVTFKDGGAFGDGTMSKIASVTKTNGSVTIDP”, the “soluble on expression in E. coli” value is listed as “soluble”.

With “RYISESGSDKVQFLISTNIGEPLRPLEKIVSGGELSRIMLSMKTVFVNKDKIPSVIFDEIDTGISGRIAERVADKMYAVSENHQVFCVTHLPQIACMSDTQFMV”, the “soluble on expression in E. coli” value is “not soluble”.

Regarding “MGSDKIHHHHHHMRILALVPGGIGDQILFFPTVADLKKYYPQAQIDVVVEPRAVGAYRVCAEVDQVFPFDFKDRNSLADWGNLLGSIREREYEAVLSLGQRSLVGLFLWLTGIPKRVGYAGRGKIFLTDAVPLNREQYAGALYHDLLQGFGINTPCPNPKLTLARQDLDWATAEQQRLGLAGQGYLVLHGGSSTLAKLKGLQKVYPVEKWAIVLRSIREQRPSLPFVVVQGPDDAEFVAELRKSNLDFQVVQPPDIGKLAAIIAGADLMLCTDSAPMHLAVASGTRTIALFGPFEPAKLLPADDRFIGIKAQGVDVATIPPQEIIDRLFGR”, the “soluble on expression in E. coli” value is “not soluble”.

For “MIYINLYNSNQMTKGILIAGTHSGVGKTTVSMGIMAALKHRQLKVQPYKVGPDYIDPSHHTAICGRPSRNLDTYLMGTEGVRQTVARTSADADIAVVEGVMGLFDGIDSTEVASSAHVAKTLDIPVILVINVHGMSRSAAALLKGYSEFDPEVRVAGVILNQVGSPRHAELVKNSLPGNIPIIGTIPRRKDIEVPSRHLGLYMAHEK”, the “soluble on expression in E. coli” value is “not soluble”.

On to “SGQTALAGGSSSTPTPQALYPDLSCPEGLEELLSAPPPDLGAQRRHGWNPKDCSENIEVKEGGLYFERRPVAQSTDGARGKRGYSRGLHAWEISWPLEQRGTHAVVGVATALAPLQTDHYAALLGSNSESWGWDIGRGKLYHQSKGPGAPQYPAGTQGEQLEVPERLLVVLDMEEGTLGYAIGGTYLGPAFRGLKGRTLYPAVSAVWGQCQVRIRYLGERRAEPHSLLHLSRLCVRHNLGDTRLGQVSALPLPPAMKRYLLYQ”, for which the “soluble on expression in E. coli” value is listed as “not soluble”.

On to “MGSDKIHHHHHHMARSHRLFELMQALRRHRRTVSGASLAQELGVSLRTIRRDVATLQGMGADIDGEPGLGYILKPGFLLPPLSFTEEELQALMIGAQWVSRQTDDKFAFAVRNALAKISAVLPVEMRPTLEDETFYISKPLSVSTTIDLSEIRRALRDQCKLSITLAIEHAPKDAQIIWPIMLGFIEARRHLAAWCEGDSQYRVIDMDDIADAHVLTERYTRNRRQLIKEWRALEVLPCNVRGETC”, for which the “soluble on expression in E. coli” value is “not soluble”.

“ANQQTSGKVLYEGKEFDYVFSIDVNEGGPSYKLPYNTSDDPWLTAYNFLQKNDLNPMFLDQVAKFIIDNTKGQMLGLGNP”: the “soluble on expression in E. coli” value was “soluble”.

Take “MTTHTGGCQCGAVRFRATGDLQDSSICHCRMCQKAFGAYYAPLVSVRNVEFEWTRGEPKRFQSSSVVKRGFCPECGTPLTYEAPDGVAVAAGAFDDPAALPPTIQWGVERKIDFVDTLHTLPAVATEDDLTQVDYLTNLVSYQHPDHDTENWPPEKR”: the “soluble on expression in E. coli” value was “not soluble”.

“MASKLLQLKSKACEASKFVSKHGTTYYKQLLDKNKMYIQEPATIEKCNELSKQLLYTRLASIPGRSESFWKEVNHVKGLWKNRADLKVEDAGIAALFGLECFAWYCAGEIVGRGFTFTGYYP”: the “soluble on expression in E. coli” value is on record as “not soluble”.

For “MSFLSIPINEKSLSFIKNNFQAQIQALEQFYPIIKNALNLGLNPSSIKFGGGTALSMYYFQHRLSFDMDLFVNDAQCLGFFSPKLWIDNCSHFDSTRYIDQHNHIGVTNKDNIKIDVLVDYASNEGYVDNSKKIFAFDIYIESLENIIAKKITFRKTDNKTRDIFDIAVALHNDNNLFDKLLSSQKITKQDLLTLQNSLQELDKKRYSIEIDMVEPISHYKDLSLSAYDFLIDKIDQIKTATYSNSHDNADDLDNSNEYTPTPKRRR”, the “soluble on expression in E. coli” value is recorded as “not soluble”.

Turning to “TTPTVNATPKIHKRDYQKDVVYLYQFPRIDTVPNLSSFCLKTETFLRAFKIPHEVIETGSLRSRNGTLPFVELNGEHIPDSDLIEVRLRKHFQIPNLSAEDESHATALCRLADNHLLSIIIKYKAAEDAWYSALLRGVPGPNCLKTILKPIVRKLFMKKVHERTGGAIGNFTEDEAEMLCHKDLQAIQDSIKGKYLFGDKITSADCTVFGEVASAYYPFPNKFSRIIDSHYPKLHEYCDRIIEELY”, the “soluble on expression in E. coli” value is given as “not soluble”.

Regarding “MILVTGFEPFGSLEHNPSQALLDLLPSEVDGKPLRKAVLPVDAEALGEALEDLHREGPKAVLHLGLAEDRPVLTLERLAVNLLDFPRPDNRGRVLEDLPIVPGGPLALPARFPVKPVLARWREAGIPGRPSLSAGSYLCNQAFYLSLYRLPEEVPVGFLHLPPDETLALKRPRPYVPLEVQARAVRLALEHL”, the “soluble on expression in E. coli” value is recorded as “soluble”.

In the case of “MAHHHHHHMDVEHFIASLPPRTSVCGLHSVLSHASVHSLDSLGSTETPMLLTAQNFSFMSSGGDGDDNIGNAASTDSRATGAHGSGSNGSSHSGHHPTSPSPCGANASPFISKRLKYVIRSVALDHEECGGDSLSSRIASSYIGSSMPATNSQTRRRSERHVTFALEPEVLDARPRFSAYSRTVELLEQICLDKQSPWNALSLLQSALEERRGQLAQLRGQWDGALTGEAPTLTSSVTPKPCTITTSSGGGAVCHSRDKTTVPSPKSFPSATTSTLMTKGKSSRYSKVKPKACTTCSAM”, the “soluble on expression in E. coli” value was “not soluble”.

“MKLLALVALCAVGVASHRDKRQLSIGTISVSGAGGSTGCVVTGNVLYANGIRLRNLTSSEQSELATYQTEVEQYKTQLRNILSQRRENLRNRLMSQGRNQQQQSNDVSSQGGNDDGSIPKAPEKPSFCTAEDTTQYYFDGCMVQGNKVYVGGQYARDLSSDEISELQTFDTQQTAYQNAVQSQMQSQVQGLFGGSDFLSALFGGDRFNQQQQRQQPSSTTPASTSSTTLPPKPTVPQFCTAIF”: the “soluble on expression in E. coli” value is given as “not soluble”.

On to “MLEFVMREWKKSRKLLGQRLFNKLMKMTFYGHFVAGEDQESIQPLLRHYRAFGVSAILDYGVEEDLSPEEAEHKEMESCTSAAERDGSGTNKRDKQYQAHRAFGDRRNGVISARTYFYANEAKCDSHMETFLRCIEASGRVSDDGFIAIKLTALGRPQFLLQFSEVLAKWRCFFHQMAVEQGQAGLAAMDTKLEVAVLQESVAKLGIASRAEIEDWFTAETLGVSGTMDLLDWSSLIDSRTKLSKHLVVPNAQTGQLEPLLSRFTEEEELQMTRMLQRMDVLAKKATEMGVRLMVDAEQTYFQPAISRLTLEMQRKFNVEKPLIFNTYQCYLKDAYDNVTLDVELARREGWCFGAKLVRGAYLAQERARAAEIGYEDPINPTYEATNAMYHRCLDYVLEELKHNAKAKVMVASHNEDTVRFALRRMEELGLHPADHQVYFGQLLGMCDQISFPLGQAGYPVYKYVPYGPVMEVLPYLSRRALENSSLMKGTHRERQLLWLELLRRLRTGNLFHRPA”, for which the “soluble on expression in E. coli” value is reported as “soluble”.

Take “MNIAKLIDHTILKANTTKEDVMKVIEEAKEYKFASVCINPTWVKLAAEELAGHDVDVCTVIGFPLGASTTETKAFETKDAIAKGATEVDMVINVGALKDGDNELVEKDIYEVVQAAKGKALVKVIIETCLLTDEEKVRACELSVKAGADFVKTSTGFSTGGATAEDIALMRKTVGPNVGVKASGGVRTREDAEKMVAAGASRVGASASVAIVLNDAKGATDNY”: the “soluble on expression in E. coli” value is “not soluble”.

Turning to “MGSDKIHHHHHHMLKSGGSFFYQVAQGYAMTKQPKTIQEMMTLLVEERGLDITGFSDFSTVLLDCNYYRLSGYFRAFQIDPSHGNNRFRNGTHIKDFMIPYLMDEQLRLLILRGTSSLEQTLRAHFAYYLAQNGGAYSYTELSSYKTIKYSDGTEAREVLIENIHKWLERSSEVCIRHYRNNNEPIPIWAAVEAMPFDTLSKMISLHTNTTAVDELNQSLSLGKNRQRAAQIIHSMVYLRNICSHHCRLWNREIVLPPPVLDATAERYGSYAYEDRSVWKSLIVLMDLIDGIKKNSTYSSMLIKQAESNDNYFWGLCHPKRWH”, the “soluble on expression in E. coli” value is on record as “not soluble”.

“PDITATPAWDALARHHDQIGNTHLRQFFADDPGRGRELTVSVGDLYIDYSKHRVTRETLALLIDLARTAHLEERRDQMFAGVHINTSEDRAVLHTALRLPRDAELVVDGQDVVTDVHAVLDAMGAFTDRLRSGEWTGATGKRISTVVNIGIGGSDLGPVMVYQALRHYADAGISARFVSNVDPADLIATLADLDPATTLFIVASKTFSTLETLTNATAARRWLTDALGDAAVSRHFVAVSTNKRLVDDFGINTDNMFGFWDWVGGRYSVDSAIGLSLMTVIGRDAFADFLAGFHIIDRHFATAPLESNAPVLLGLIGLWYSNFFGAQSRTVLPYSNDLSRFPAYLQQLTMESNGKSTRADGSPVSADTGEIFWGEPGTNGQHAFYQLLHQGTRLVPADFIGFAQPLDDLPTAEGTGSMHDLLMSNFFAQTQVLAFGKTAEEIAADGTPAHVVAHKVMPGNRPSTSILASRLTPSVLGQLIALYEHQVFTEGVVWGIDSFDQWGVELGKTQAKALLPVITGAGSPPPQSDSSTDGLVRRYRTERGRAGLE”: the “soluble on expression in E. coli” value is given as “soluble”.

For the sequence “MTTVMKFGGTSVGSGERIRHVAKIVTKRKKEDDDVVVVVSAMSEVTNALVEISQQALDVRDIAKVGDFIKFIREKHYKAIEEAIKSEEIKEEVKKIIDSRIEELEKVLIGVAYLGELTPKSRDYILSFGERLSSPILSGAIRDLGEKSIALEGGEAGIITDNNFGSARVKRLEVKERLLPLLKEGIIPVVTGFIGTTEEGYITTLGRGGSDYSAALIGYGLDADIIEIWTDVSGVYTTDPRLVPTARRIPKLSYIEAMELAYFGAKVLHPRTIEPAMEKGIPILVKNTFEPESEGTLITNDMEMSDSIVKAISTIKNVALINIFGAGMVGVSGTAARIFKALGEEEVNVILISQGSSETNISLVVSEEDVDKALKALKREFGDFGKKSFLNNNLIRDVSVDKDVCVISVVGAGMRGAKGIAGKIFTAVSESGANIKMIAQGSSEVNISFVIDEKDLLNCVRKLHEKFIEKTNS”, the “soluble on expression in E. coli” value is “soluble”.

Turning to “NCRLFIGGIPKMKKREEILEEIAKVTEGVLDVIVYASAADKMKNRGFAFVEYESHRAAAMARRKLMPGRIQLWGHQIAVDWAEPEIDVDEDVMETV”, the “soluble on expression in E. coli” value was “soluble”.
